In paper PMC2253636:

Target: IEk on the surface of CH27 murine B-cell lymphoma cells (mouse (endogenous in CH27))
Assay: flow cytometry on cells; CH27 cells incubated with 1 mM biotinylated peptide for 20 h at 37 °C, washed, stained with streptavidin-Cy5; occupancy of IEk calculated against cells stained with 14-4-4s-bio and streptavidin-Cy5

- percent of IEk molecules occupied: 17%
Substance: biotinylated ER60 peptide (from UniProt P27773 448-461)
